Experimental data from US9284543B2, “Neutral active soluble truncated PH20 polypeptides and uses thereof” (Halozyme, Inc., priority 2008, dated 2016).
Where a chain is given by its changes, count along the chain named. Numbers in names are those of the source. One block for each molecule: values may come before it.

Assays:
[1] = Hyaluronidase activity of N-glycan site specific deglycosylation mutants (biotinylated-HA assay); type: biochemical; details: media of transfected CHO-S cells
Procedure: In short, a 4×BH 96-well plate was coated with biotinylated-HA (1.1 MDa). The 72 hour post transfection supernatant from cells transfected with human PH20 hyaluronidase carboxy-terminus deletion mutants was diluted in buffer at either pH 7.4 or pH 5.5 and added to individual wells of the plate and allowed to incubate at 37° C. for 90 minutes. The reaction was terminated by addition of 4M guanidine HCl. The wells were washed 4× with Phosphate Buffered Saline with Tween20 (PBST) to remove any digested biotinylated-HA followed by addition of streptavidin-HRP for 1 hour at room temperature. The wells were washed 4× with PBST and the plate was developed with TMB. The plate was read at 450 nm using an ELISA plate reader. Hyaluronidase activity (in Units/mL) was determined by interpolating the measured absorbance at 450 nm with a hyaluronidase reference standard curve. Full length mature human PH20 hyaluronidase and untransfected CHO cells were used as positive and negative controls.
PH20sHis (SEQ ID NO:210) was used as a template for mutagenesis of each asparagine residue to alanine using QuikChange® Site-Directed Mutagenesis Kit (Cat No. 200518, Stratagene). […] Six single mutants were generated, one for each of the N-glycosylation sites. Additionally, three double mutants and a triple mutant were generated for asparagines N82, N166 and N254, all of which are occupied by complex type glycans. Finally, a double mutant N368A/N393A was generated, lacking high mannose glycans. The mutants were transfected into CHO—S cells and expression was performed as described in Example 2A. Secretion into the media and hyaluronidase activity were determined as described in Examples 3 and 5, above.

[2] = Microtiter hyaluronidase activity assay with biotinylated-hyaluronic acid; type: biochemical; details: for pH 5.5 Activity / pH 7.4 Activity: 72 hour post transfection supernatant; for Hyaluronidase activity (in words): pH 7.4 and pH 5.5
CHO-S cells = experiment: PI-PLC treatment of expressing cells, Western blot of media and cells; type: cell-based, Chinese Hamster; details: cells incubated with PI-PLC for 2 hours
Procedure: In this example, following transient expression, as described in Example 2 above, the media and cells were harvested separately and analyzed for PH20 expression and solublility by Western blot analysis. Solubility of the C-terminus truncation mutants was determined by examining whether the expressed protein was present in the growth media or in the cells. […] Cells expressing these mutants were treated with phosphoinositol-phospholipase C (PI-PLC), which cleaves the GPI-anchor allowing the release of soluble protein into the media, and the presence of PH20 in the resulting media and cells was determined by Western blot analysis.
Following expression of rHuPH20 in CHO—S cells for 72 hours, as described in Example 2A above, the media and cells were harvested separately. The cells were washed with serum-free media followed by the addition of 2 mL serum-free media per well. PI-PLC (0.5 units/well) was added to each well and the cells were incubated in the PI-PLC for 2 hours. The resultant media and cells were analyzed by Western blot analysis as described above.
Two plates each of rHuPH20 expressing CHO—S cells, one for treatment with PI-PLC and one without treatment with PI-PLC, were prepared for each C-terminus mutant as described in Example 2B above. Following expression for 48 hours, for cells untreated with PI-PLC, the media and cells were harvested separately. The harvested media was spun down, concentrated to a volume of 10 mL, and buffer exchanged into PBS using an Amicon 30 kD MWCO concentrator. The cells were rinsed with cold PBS and scraped and resuspended in 1.2 mL PBS with protease inhibitor Set III (Cat No. 539134, Calbiochem). The resuspended cells were briefly sonicated to prepare whole-cell extract. For PI-PLC treatment of cells, following expression for 48 hours, the untreated media was harvested, as described above. The cells were rinsed once with fresh CD DG44 medium with Glutamax-1, and the media was replaced with 12 mL fresh detergent free CD DG44 medium supplemented with Glutamax-1 with 3.0 units PI-PLC per dish, and the cells were incubated for 2 hours at 37° C. with 5% CO2. After 2 hours, the PI-PLC media and cells were harvested separately, as described above. The resultant untreated media and cells, and PI-PLC treated media and cells, were analyzed by Western blot analysis as described above.

B1: N82A: PH20sHis N-glycosylation site mutant N82A, SEQ ID NO:202 (protein)
chain: MGVLKFKHIFFRSFVKSSGVSQIVFTFLLIPCCLTLNFRAPPVIPNVPFLWAWNAPSEFCLGKFDEPLDMSLFSFIGSPRIAATGQGVTIFYVDRLGYYPYIDSITGVTVNGGIPQKISLQDHLDKAKKDITFYMPVDNLGMAVIDWEEWRPTWARNWKPKDVYKNRSIELVQQQNVQLSLTEATEKAKQEFEKAGKDFLVETIKLGKLLRPNHLWGYYLFPDCYNHHYKKPGYNGSCFNVEIKRNDDLSWLWNESTALYPSIYLNTQQSPVAATLYVRNRVREAIRVSKIPDAKSPLPVFAYTRIVFTDQVLKFLSQDELVYTFGETVALGASGIVIWGTLSIMRSMKSCLLLDNYMETILNPYIINVTLAAKMCSQVLCQEQGVCIRKNWNSSDYLHLNPDNFAIQLEKGGKFTVRGKPTLEDLEQFSEKFYCSCYSTLSCKEKADVKDTDAVDVCIADGVCIDAFLKPPMETEEPQIFYNASPSTLSHHHHHH
modifications: His tag; PH20sHis N82A
Activity pH 5.5 [1]: YES
Activity pH 7.4 [1]: YES

B2: N166A: PH20sHis N-glycosylation site mutant N166A, SEQ ID NO:203 (protein)
chain: B1 chain with A82N, N166A
modifications: His tag; PH20sHis N166A
Activity pH 5.5 [1]: YES
Activity pH 7.4 [1]: YES

More lines, main results first:

pH 5.5 Activity ([2]; Table 6A): 0.324 Units/ml
pH 7.4 Activity ([2]; Table 6A): 0.608 Units/ml
B3: SPAM1-LFLI: C-terminally truncated human PH20, precursor 502 aa (SEQ ID NO:47), mature 467 aa (SEQ ID NO:99) (protein, listed as Homo sapiens)
chain 1: MGVLKFKHIFFRSFVKSSGVSQIVFTFLLIPCCLTLNFRAPPVIPNVPFLWAWNAPSEFCLGKFDEPLDMSLFSFIGSPRINATGQGVTIFYVDRLGYYPYIDSITGVTVNGGIPQKISLQDHLDKAKKDITFYMPVDNLGMAVIDWEEWRPTWARNWKPKDVYKNRSIELVQQQNVQLSLTEATEKAKQEFEKAGKDFLVETIKLGKLLRPNHLWGYYLFPDCYNHHYKKPGYNGSCFNVEIKRNDDLSWLWNESTALYPSIYLNTQQSPVAATLYVRNRVREAIRVSKIPDAKSPLPVFAYTRIVFTDQVLKFLSQDELVYTFGETVALGASGIVIWGTLSIMRSMKSCLLLDNYMETILNPYIINVTLAAKMCSQVLCQEQGVCIRKNWNSSDYLHLNPDNFAIQLEKGGKFTVRGKPTLEDLEQFSEKFYCSCYSTLSCKEKADVKDTDAVDVCIADGVCIDAFLKPPMETEEPQIFYNASPSTLSATMFIVSILFLI
chain 2: LNFRAPPVIPNVPFLWAWNAPSEFCLGKFDEPLDMSLFSFIGSPRINATGQGVTIFYVDRLGYYPYIDSITGVTVNGGIPQKISLQDHLDKAKKDITFYMPVDNLGMAVIDWEEWRPTWARNWKPKDVYKNRSIELVQQQNVQLSLTEATEKAKQEFEKAGKDFLVETIKLGKLLRPNHLWGYYLFPDCYNHHYKKPGYNGSCFNVEIKRNDDLSWLWNESTALYPSIYLNTQQSPVAATLYVRNRVREAIRVSKIPDAKSPLPVFAYTRIVFTDQVLKFLSQDELVYTFGETVALGASGIVIWGTLSIMRSMKSCLLLDNYMETILNPYIINVTLAAKMCSQVLCQEQGVCIRKNWNSSDYLHLNPDNFAIQLEKGGKFTVRGKPTLEDLEQFSEKFYCSCYSTLSCKEKADVKDTDAVDVCIADGVCIDAFLKPPMETEEPQIFYNASPSTLSATMFIVSILFLI
modifications: HuPH20 precursor 1-502; Mature HuPH20 36-502
Hyaluronidase activity (in words) [2]: little detectable activity
Expressed in Media Following Addition of PI-PLC (CHO-S cells): YES

pH 5.5 Activity ([2]; Table 6): 1.125 Units/ml
pH 7.4 Activity ([2]; Table 6): 1.4715 Units/ml
pH 5.5 Activity ([2]; Table 6A): 1.256 Units/ml
pH 7.4 Activity ([2]; Table 6A): 1.782 Units/ml
B4: SPAM1-SSVA: C-terminally truncated human PH20, precursor 507 aa (SEQ ID NO:3), mature 472 aa (SEQ ID NO:55) (protein, listed as Homo sapiens)
chain 1: MGVLKFKHIFFRSFVKSSGVSQIVFTFLLIPCCLTLNFRAPPVIPNVPFLWAWNAPSEFCLGKFDEPLDMSLFSFIGSPRINATGQGVTIFYVDRLGYYPYIDSITGVTVNGGIPQKISLQDHLDKAKKDITFYMPVDNLGMAVIDWEEWRPTWARNWKPKDVYKNRSIELVQQQNVQLSLTEATEKAKQEFEKAGKDFLVETIKLGKLLRPNHLWGYYLFPDCYNHHYKKPGYNGSCFNVEIKRNDDLSWLWNESTALYPSIYLNTQQSPVAATLYVRNRVREAIRVSKIPDAKSPLPVFAYTRIVFTDQVLKFLSQDELVYTFGETVALGASGIVIWGTLSIMRSMKSCLLLDNYMETILNPYIINVTLAAKMCSQVLCQEQGVCIRKNWNSSDYLHLNPDNFAIQLEKGGKFTVRGKPTLEDLEQFSEKFYCSCYSTLSCKEKADVKDTDAVDVCIADGVCIDAFLKPPMETEEPQIFYNASPSTLSATMFIVSILFLIISSVA
chain 2: LNFRAPPVIPNVPFLWAWNAPSEFCLGKFDEPLDMSLFSFIGSPRINATGQGVTIFYVDRLGYYPYIDSITGVTVNGGIPQKISLQDHLDKAKKDITFYMPVDNLGMAVIDWEEWRPTWARNWKPKDVYKNRSIELVQQQNVQLSLTEATEKAKQEFEKAGKDFLVETIKLGKLLRPNHLWGYYLFPDCYNHHYKKPGYNGSCFNVEIKRNDDLSWLWNESTALYPSIYLNTQQSPVAATLYVRNRVREAIRVSKIPDAKSPLPVFAYTRIVFTDQVLKFLSQDELVYTFGETVALGASGIVIWGTLSIMRSMKSCLLLDNYMETILNPYIINVTLAAKMCSQVLCQEQGVCIRKNWNSSDYLHLNPDNFAIQLEKGGKFTVRGKPTLEDLEQFSEKFYCSCYSTLSCKEKADVKDTDAVDVCIADGVCIDAFLKPPMETEEPQIFYNASPSTLSATMFIVSILFLIISSVA
modifications: HuPH20 precursor 1-507; mature HuPH20 36-507
Expressed in Media Following Addition of PI-PLC (CHO-S cells): YES

pH 5.5 Activity ([2]; Table 6): 0.0405 Units/ml
pH 7.4 Activity ([2]; Table 6): 0.0405 Units/ml
pH 5.5 Activity ([2]; Table 6A): 0.122 Units/ml
pH 7.4 Activity ([2]; Table 6A): 0.446 Units/ml
B5: SPAM1-ILFL: C-terminally truncated human PH20, precursor 501 aa (SEQ ID NO:6), mature 466 aa (SEQ ID NO:58) (protein, listed as Homo sapiens)
chain 1: MGVLKFKHIFFRSFVKSSGVSQIVFTFLLIPCCLTLNFRAPPVIPNVPFLWAWNAPSEFCLGKFDEPLDMSLFSFIGSPRINATGQGVTIFYVDRLGYYPYIDSITGVTVNGGIPQKISLQDHLDKAKKDITFYMPVDNLGMAVIDWEEWRPTWARNWKPKDVYKNRSIELVQQQNVQLSLTEATEKAKQEFEKAGKDFLVETIKLGKLLRPNHLWGYYLFPDCYNHHYKKPGYNGSCFNVEIKRNDDLSWLWNESTALYPSIYLNTQQSPVAATLYVRNRVREAIRVSKIPDAKSPLPVFAYTRIVFTDQVLKFLSQDELVYTFGETVALGASGIVIWGTLSIMRSMKSCLLLDNYMETILNPYIINVTLAAKMCSQVLCQEQGVCIRKNWNSSDYLHLNPDNFAIQLEKGGKFTVRGKPTLEDLEQFSEKFYCSCYSTLSCKEKADVKDTDAVDVCIADGVCIDAFLKPPMETEEPQIFYNASPSTLSATMFIVSILFL
chain 2: LNFRAPPVIPNVPFLWAWNAPSEFCLGKFDEPLDMSLFSFIGSPRINATGQGVTIFYVDRLGYYPYIDSITGVTVNGGIPQKISLQDHLDKAKKDITFYMPVDNLGMAVIDWEEWRPTWARNWKPKDVYKNRSIELVQQQNVQLSLTEATEKAKQEFEKAGKDFLVETIKLGKLLRPNHLWGYYLFPDCYNHHYKKPGYNGSCFNVEIKRNDDLSWLWNESTALYPSIYLNTQQSPVAATLYVRNRVREAIRVSKIPDAKSPLPVFAYTRIVFTDQVLKFLSQDELVYTFGETVALGASGIVIWGTLSIMRSMKSCLLLDNYMETILNPYIINVTLAAKMCSQVLCQEQGVCIRKNWNSSDYLHLNPDNFAIQLEKGGKFTVRGKPTLEDLEQFSEKFYCSCYSTLSCKEKADVKDTDAVDVCIADGVCIDAFLKPPMETEEPQIFYNASPSTLSATMFIVSILFL
modifications: HuPH20 precursor 1-501; mature HuPH20 36-501
Hyaluronidase activity (in words) [2]: little detectable activity
Expressed in Media Following Addition of PI-PLC (CHO-S cells): YES
